From PMC11647504, “The GPCR adaptor protein Norbin controls the trafficking of C5aR1 and CXCR4 in mouse neutrophils” (The Journal of Biological Chemistry, 2024)

T1: Recombinant His-Norbin (His-tagged rat Norbin protein) (rat, UniProt O35095 1-729)
T1 construct: Norbin (Neurochondrin), rat, full-length construct; 98% identical to human Norbin; also called Neurochondrin; NCDN; source: M15 [pREP4] bacteria, inclusion bodies solubilized in 6 M guanidine hydrochloride, renatured by dialysis, purified; not shown: 6xHis, C-terminal, kept
T1 sequence (looked up): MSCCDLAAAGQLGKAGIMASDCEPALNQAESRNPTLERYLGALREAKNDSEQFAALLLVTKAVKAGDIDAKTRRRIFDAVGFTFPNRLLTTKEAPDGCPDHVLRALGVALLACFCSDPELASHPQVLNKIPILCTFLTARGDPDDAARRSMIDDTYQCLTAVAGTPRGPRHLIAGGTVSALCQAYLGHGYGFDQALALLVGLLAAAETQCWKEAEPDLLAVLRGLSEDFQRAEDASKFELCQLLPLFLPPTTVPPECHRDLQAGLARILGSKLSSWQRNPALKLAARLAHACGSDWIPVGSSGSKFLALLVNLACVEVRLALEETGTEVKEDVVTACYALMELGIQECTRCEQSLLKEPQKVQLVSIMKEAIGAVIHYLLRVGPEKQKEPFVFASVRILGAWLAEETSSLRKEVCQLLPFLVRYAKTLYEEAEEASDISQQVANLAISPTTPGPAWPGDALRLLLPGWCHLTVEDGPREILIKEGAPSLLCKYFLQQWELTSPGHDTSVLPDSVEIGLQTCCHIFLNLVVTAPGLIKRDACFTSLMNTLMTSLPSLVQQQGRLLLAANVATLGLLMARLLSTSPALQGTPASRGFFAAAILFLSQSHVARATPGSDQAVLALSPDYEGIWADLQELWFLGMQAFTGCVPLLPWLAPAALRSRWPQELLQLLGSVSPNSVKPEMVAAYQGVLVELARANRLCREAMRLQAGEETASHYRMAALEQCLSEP

B1: GST-tagged C-terminal tail of MCH1 (melanin-concentrating hormone receptor 1) (domain or fragment)
chain: ANSCLNPFVYIVLCETFRKRLVLSVKPAAQGQLRAVSNAQTADEERTESKGT
notes: In pGEX4T3; Positive control; also called GST-MCH1
B2: GST-tagged C-terminal tail of human CXCR4 (domain or fragment)
chain: FHCCLNPILYAFLGAKFKTSAQHALTSVSRGSSLKILSKGKRGGHSSVSTESESSSFHSS
notes: In pGEX6P1, cloned with BamH1 and Xho1; also called GST-CXCR4
B3: GST-tagged C-terminal tail of human C5aR1 (domain or fragment)
chain: INCCINPIIYVVAGQGFQGRLRKSLPSLLRNVLTEESVVRESKSFTRSTVDTMAQKTQAV
notes: In pGEX4T3, cloned with BamH1 and Xho1; also called GST-C5aR1

Biological target: T1, Recombinant His-Norbin (His-tagged rat …)
Experiment: pull-down; GST-tagged GPCR C-terminal tails (or GST) from bacterial lysates bound to glutathione Sepharose, washed twice in PBS, 2% Triton X-100, 5 mM DTT, incubated with 50 μg purified recombinant His-Norbin for 3 h at 4 °C, washed 3 x in PBS, 1% Triton X-100; western blot with His antibody
Conditions: both partners purified

| binding result | Binder |
| --- | --- |
| binds | B1 |
| binds | B2 |
| binds | B3 |
